Test results from the supplement of paper PMC10567573.

B1: FAM189A2 (parent)
chain: GSEAAVIPLDLGCTQVTQDGDIPN
B2: TOR1AIP2 (parent)
chain: SPGHSSAGQEGEDTLRRRLLAPEA

Variants of: B1
Assay: protein stability index of a GFP-peptide fusion (GPS, HEK-293T) (PSI 1-6); higher = more stable
Conditions: c terminus: a fixed tail appended
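Further: lentivirally expressed fusions sorted by FACS into six bins by GFP to DsRed ratio, PSI derived from sequencing read proportions per bin multiplied by bin number.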

| Variant | protein stability index |
| --- | --- |
| GSEAAVIPLDLGCTQVTQDGTIPN | 4.97 |
| GSEAAVIPLDLGCTQVTQDGMIPN | 4.05 |
| GSEAAVIPLDLGCTQVTQDGLIPN | 4.52 |
| GSEAAVIPLDLGCTQVTQDGQIPN | 4.92 |
| GSEAAVIPLDLGCTQVTQDGSIPN | 4.97 |
| GSEAAVIPLDLGCTQVTQDGVIPN | 4.94 |
| GSEAAVIPLDLGCTQVTQDGYIPN | 4.46 |
| GSEAAVIPLDLGCTQVTQDGRIPN | 4.69 |
| GSEAAVIPLDLGCTQVTQDGNIPN | 4.77 |
| GSEAAVIPLDLGCTQVTQDGWIPN | 3.76 |
| GSEAAVIPLDLGCTQVTQDGPIPN | 4.77 |
| GSEAAVIPLDLGCTQVTQDGKIPN | 5.48 |
| GSEAAVIPLDLGCTQVTQDGDSPN | 5.64 |
| GSEAAVIPLDLGCTQVTQDGDFPN | 5.15 |
| GSEAAVIPLDLGCTQVTQDGDRPN | 5.22 |
| GSEAAVIPLDLGCTQVTQDGDGPN | 5.26 |
| GSEAAVIPLDLGCTQVTQDGDCPN | 5.67 |
| GSEAAVIPLDLGCTQVTQDGDVPN | 5.54 |
| GSEAAVIPLDLGCTQVTQDGDAPN | 5.72 |
| GSEAAVIPLDLGCTQVTQDGDQPN | 5.31 |
| GSEAAVIPLDLGCTQVTQDGDDPN | 5.64 |
| GSEAAVIPLDLGCTQVTQDGDHPN | 5.37 |
| GSEAAVIPLDLGCTQVTQDGDEPN | 5.53 |

| Variant | protein stability index |
| --- | --- |
| GSEAAVIPLDLGCTQVTQDGDWPN | 5.34 |
| GSEAAVIPLDLGCTQVTQDGDMPN | 5.08 |
| GSEAAVIPLDLGCTQVTQDGDLPN | 5.39 |
| GSEAAVIPLDLGCTQVTQDGDYPN | 5.26 |
| GSEAAVIPLDLGCTQVTQDGDTPN | 5.58 |
| GSEAAVIPLDLGCTQVTQDGDNPN | 5.25 |
| GSEAAVIPLDLGCTQVTQDGDPPN | 5.37 |
| GSEAAVIPLDLGCTQVTQDGDKPN | 5.65 |
| GSEAAVIPLDLGCTQVTQDGDIYN | 4.52 |
| GSEAAVIPLDLGCTQVTQDGDISN | 5.3 |
| GSEAAVIPLDLGCTQVTQDGDICN | 4.93 |
| GSEAAVIPLDLGCTQVTQDGDIQN | 5.3 |
| GSEAAVIPLDLGCTQVTQDGDIHN | 4.85 |
| GSEAAVIPLDLGCTQVTQDGDIRN | 4.89 |
| GSEAAVIPLDLGCTQVTQDGDIKN | 5.17 |
| GSEAAVIPLDLGCTQVTQDGDIGN | 5.44 |
| GSEAAVIPLDLGCTQVTQDGDITN | 5.5 |
| GSEAAVIPLDLGCTQVTQDGDIAN | 5.3 |
| GSEAAVIPLDLGCTQVTQDGDIDN | 5.81 |
| GSEAAVIPLDLGCTQVTQDGDIWN | 4.07 |
| GSEAAVIPLDLGCTQVTQDGDILN | 5.25 |
| GSEAAVIPLDLGCTQVTQDGDIIN | 5.16 |
| GSEAAVIPLDLGCTQVTQDGDINN | 5.87 |

| Variant | protein stability index |
| --- | --- |
| GSEAAVIPLDLGCTQVTQDGDIMN | 5.22 |
| GSEAAVIPLDLGCTQVTQDGDIEN | 5.55 |
| GSEAAVIPLDLGCTQVTQDGDIFN | 4.35 |
| GSEAAVIPLDLGCTQVTQDGDIVN | 5.29 |
| GSEAAVIPLDLGCTQVTQDGDIPF | 4.53 |
| GSEAAVIPLDLGCTQVTQDGDIPT | 5.54 |
| GSEAAVIPLDLGCTQVTQDGDIPS | 5.51 |
| GSEAAVIPLDLGCTQVTQDGDIPG | 5.53 |
| GSEAAVIPLDLGCTQVTQDGDIPW | 4.39 |
| GSEAAVIPLDLGCTQVTQDGDIPI | 4.51 |
| GSEAAVIPLDLGCTQVTQDGDIPR | 4.91 |
| GSEAAVIPLDLGCTQVTQDGDIPA | 5.27 |
| GSEAAVIPLDLGCTQVTQDGDIPQ | 5.3 |
| GSEAAVIPLDLGCTQVTQDGDIPK | 5.03 |
| GSEAAVIPLDLGCTQVTQDGDIPY | 4.91 |
| GSEAAVIPLDLGCTQVTQDGDIPE | 5.28 |
| GSEAAVIPLDLGCTQVTQDGDIPH | 5.28 |
| GSEAAVIPLDLGCTQVTQDGDIPC | 5.25 |
| GSEAAVIPLDLGCTQVTQDGDIPV | 5.17 |
| GSEAAVIPLDLGCTQVTQDGDIPM | 4.95 |
| GSEAAVIPLDLGCTQVTQDGDIPD | 5.42 |
| GSEAAVIPLDLGCTQVTQDGDIPP | 5.14 |
| GSEAAVIPLDLGCTQVTQDGDIPL | 4.79 |

Variants of: B2
Assay: as above
Conditions: c terminus: a fixed tail appended

| Variant | protein stability index |
| --- | --- |
| SPGHSVAGQEGEDTLRRRLLAPEA | 3.24 |
| SPGHSNAGQEGEDTLRRRLLAPEA | 3.75 |
| SPGHSLAGQEGEDTLRRRLLAPEA | 4.18 |
| SPGHSYAGQEGEDTLRRRLLAPEA | 3.73 |
| SPGHSMAGQEGEDTLRRRLLAPEA | 4.02 |
| SPGHSDAGQEGEDTLRRRLLAPEA | 4.48 |
| SPGHSAAGQEGEDTLRRRLLAPEA | 4.36 |
| SPGHSQAGQEGEDTLRRRLLAPEA | 4.65 |
| SPGHSPAGQEGEDTLRRRLLAPEA | 4.26 |
| SPGHSCAGQEGEDTLRRRLLAPEA | 3.9 |
| SPGHSWAGQEGEDTLRRRLLAPEA | 3.97 |
| SPGHSTAGQEGEDTLRRRLLAPEA | 4.36 |
| SPGHSKAGQEGEDTLRRRLLAPEA | 3.97 |
| SPGHSGAGQEGEDTLRRRLLAPEA | 3.66 |
| SPGHSFAGQEGEDTLRRRLLAPEA | 2.94 |
| SPGHSRAGQEGEDTLRRRLLAPEA | 4.46 |
| SPGHSEAGQEGEDTLRRRLLAPEA | 4.51 |
| SPGHSHAGQEGEDTLRRRLLAPEA | 4.23 |
| SPGHSIAGQEGEDTLRRRLLAPEA | 3.42 |
| EPGHSSAGQEGEDTLRRRLLAPEA | 5.47 |
| IPGHSSAGQEGEDTLRRRLLAPEA | 4.92 |
| TPGHSSAGQEGEDTLRRRLLAPEA | 4.88 |
| NPGHSSAGQEGEDTLRRRLLAPEA | 3.13 |
| CPGHSSAGQEGEDTLRRRLLAPEA | 3.46 |

| Variant | protein stability index |
| --- | --- |
| HPGHSSAGQEGEDTLRRRLLAPEA | 4.57 |
| APGHSSAGQEGEDTLRRRLLAPEA | 5.07 |
| VPGHSSAGQEGEDTLRRRLLAPEA | 4.59 |
| QPGHSSAGQEGEDTLRRRLLAPEA | 4.02 |
| YPGHSSAGQEGEDTLRRRLLAPEA | 2.21 |
| PPGHSSAGQEGEDTLRRRLLAPEA | 5.3 |
| DPGHSSAGQEGEDTLRRRLLAPEA | 5.21 |
| WPGHSSAGQEGEDTLRRRLLAPEA | 4.53 |
| MPGHSSAGQEGEDTLRRRLLAPEA | 4.49 |
| GPGHSSAGQEGEDTLRRRLLAPEA | 3.81 |
| RPGHSSAGQEGEDTLRRRLLAPEA | 4.05 |
| LPGHSSAGQEGEDTLRRRLLAPEA | 4.91 |
| KPGHSSAGQEGEDTLRRRLLAPEA | 4.47 |
| FPGHSSAGQEGEDTLRRRLLAPEA | 2.59 |
| SPCHSSAGQEGEDTLRRRLLAPEA | 3.32 |
| SPAHSSAGQEGEDTLRRRLLAPEA | 3.74 |
| SPKHSSAGQEGEDTLRRRLLAPEA | 3.67 |
| SPVHSSAGQEGEDTLRRRLLAPEA | 3.24 |
| SPMHSSAGQEGEDTLRRRLLAPEA | 4.48 |
| SPWHSSAGQEGEDTLRRRLLAPEA | 4.3 |
| SPFHSSAGQEGEDTLRRRLLAPEA | 3.85 |
| SPPHSSAGQEGEDTLRRRLLAPEA | 4.69 |
| SPHHSSAGQEGEDTLRRRLLAPEA | 4.21 |
| SPQHSSAGQEGEDTLRRRLLAPEA | 4.46 |

| Variant | protein stability index |
| --- | --- |
| SPLHSSAGQEGEDTLRRRLLAPEA | 3.78 |
| SPEHSSAGQEGEDTLRRRLLAPEA | 4.65 |
| SPSHSSAGQEGEDTLRRRLLAPEA | 4.02 |
| SPIHSSAGQEGEDTLRRRLLAPEA | 3.51 |
| SPDHSSAGQEGEDTLRRRLLAPEA | 4.73 |
| SPRHSSAGQEGEDTLRRRLLAPEA | 2.93 |
| SPYHSSAGQEGEDTLRRRLLAPEA | 3.83 |
| SPTHSSAGQEGEDTLRRRLLAPEA | 3.59 |
| SPNHSSAGQEGEDTLRRRLLAPEA | 4.16 |
| SPGFSSAGQEGEDTLRRRLLAPEA | 4.3 |
| SPGWSSAGQEGEDTLRRRLLAPEA | 3.98 |
| SPGASSAGQEGEDTLRRRLLAPEA | 4.22 |
| SPGISSAGQEGEDTLRRRLLAPEA | 3.92 |
| SPGMSSAGQEGEDTLRRRLLAPEA | 3.38 |
| SPGQSSAGQEGEDTLRRRLLAPEA | 3.82 |
| SPGGSSAGQEGEDTLRRRLLAPEA | 4.08 |
| SPGKSSAGQEGEDTLRRRLLAPEA | 3.52 |
| SPGSSSAGQEGEDTLRRRLLAPEA | 4.39 |
| SPGESSAGQEGEDTLRRRLLAPEA | 4.15 |
| SPGYSSAGQEGEDTLRRRLLAPEA | 3.84 |
| SPGNSSAGQEGEDTLRRRLLAPEA | 4.13 |
| SPGRSSAGQEGEDTLRRRLLAPEA | 3.76 |
| SPGCSSAGQEGEDTLRRRLLAPEA | 3.71 |
| SPGDSSAGQEGEDTLRRRLLAPEA | 4.89 |

| Variant | protein stability index |
| --- | --- |
| SPGTSSAGQEGEDTLRRRLLAPEA | 4.14 |
| SPGLSSAGQEGEDTLRRRLLAPEA | 3.85 |
| SPGPSSAGQEGEDTLRRRLLAPEA | 4.49 |
| SPGVSSAGQEGEDTLRRRLLAPEA | 3.81 |
| SEGHSSAGQEGEDTLRRRLLAPEA | 4.43 |
| SKGHSSAGQEGEDTLRRRLLAPEA | 4.44 |
| SNGHSSAGQEGEDTLRRRLLAPEA | 4.42 |
| SDGHSSAGQEGEDTLRRRLLAPEA | 4.86 |
| SIGHSSAGQEGEDTLRRRLLAPEA | 2.5 |
| SHGHSSAGQEGEDTLRRRLLAPEA | 4.2 |
| STGHSSAGQEGEDTLRRRLLAPEA | 3.23 |
| SAGHSSAGQEGEDTLRRRLLAPEA | 2.22 |
| SCGHSSAGQEGEDTLRRRLLAPEA | 2.03 |
| SGGHSSAGQEGEDTLRRRLLAPEA | 4.22 |
| SMGHSSAGQEGEDTLRRRLLAPEA | 3.75 |
| SQGHSSAGQEGEDTLRRRLLAPEA | 4.47 |
| SRGHSSAGQEGEDTLRRRLLAPEA | 4.47 |
| SVGHSSAGQEGEDTLRRRLLAPEA | 2.75 |
| SSGHSSAGQEGEDTLRRRLLAPEA | 3.93 |
| SYGHSSAGQEGEDTLRRRLLAPEA | 2.24 |
| SWGHSSAGQEGEDTLRRRLLAPEA | 2.65 |
| SFGHSSAGQEGEDTLRRRLLAPEA | 2.53 |
| SLGHSSAGQEGEDTLRRRLLAPEA | 2.43 |
| SPGHSSCGQEGEDTLRRRLLAPEA | 3.45 |

| Variant | protein stability index |
| --- | --- |
| SPGHSSGGQEGEDTLRRRLLAPEA | 4.21 |
| SPGHSSFGQEGEDTLRRRLLAPEA | 4.16 |
| SPGHSSDGQEGEDTLRRRLLAPEA | 4.56 |
| SPGHSSEGQEGEDTLRRRLLAPEA | 4.47 |
| SPGHISAGQEGEDTLRRRLLAPEA | 3.78 |
| SPGHYSAGQEGEDTLRRRLLAPEA | 4.09 |
| SPGHPSAGQEGEDTLRRRLLAPEA | 4.14 |
| SPGHVSAGQEGEDTLRRRLLAPEA | 4.3 |
| SPGHTSAGQEGEDTLRRRLLAPEA | 4.46 |
| SPGHNSAGQEGEDTLRRRLLAPEA | 4.42 |
| SPGHDSAGQEGEDTLRRRLLAPEA | 4.75 |
| SPGHFSAGQEGEDTLRRRLLAPEA | 4 |
| SPGHESAGQEGEDTLRRRLLAPEA | 4.64 |
| SPGHWSAGQEGEDTLRRRLLAPEA | 4.63 |
| SPGHGSAGQEGEDTLRRRLLAPEA | 4.11 |
| SPGHKSAGQEGEDTLRRRLLAPEA | 3.86 |
| SPGHCSAGQEGEDTLRRRLLAPEA | 3.37 |
| SPGHHSAGQEGEDTLRRRLLAPEA | 4.35 |
| SPGHMSAGQEGEDTLRRRLLAPEA | 4.49 |
| SPGHASAGQEGEDTLRRRLLAPEA | 3.84 |
| SPGHQSAGQEGEDTLRRRLLAPEA | 4.64 |
| SPGHRSAGQEGEDTLRRRLLAPEA | 4 |
| SPGHLSAGQEGEDTLRRRLLAPEA | 3.9 |
